Assay [1] deals with T1, 383 amino acid recombinant tau (UniProt P10636-6 1-383, biotinylated where printed as biotin-rTau383 (position not given)).
T1 construct: also called rTau383
In words: Octet.

Another assay deals with T2, eTau 1b.
T2 construct: member of the group m9
T2 polypeptide: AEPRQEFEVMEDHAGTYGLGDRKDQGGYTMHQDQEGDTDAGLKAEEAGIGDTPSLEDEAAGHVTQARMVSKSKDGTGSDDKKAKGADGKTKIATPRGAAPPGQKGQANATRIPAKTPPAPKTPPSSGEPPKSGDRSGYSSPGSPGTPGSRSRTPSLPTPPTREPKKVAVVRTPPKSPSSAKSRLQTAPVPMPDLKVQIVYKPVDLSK
The assay can be described thus: relative binding affinity, method not named (Table 4).

Another assay concerns the target T3, eTau 2.
T3 construct: member of the group m9
T3 polypeptide: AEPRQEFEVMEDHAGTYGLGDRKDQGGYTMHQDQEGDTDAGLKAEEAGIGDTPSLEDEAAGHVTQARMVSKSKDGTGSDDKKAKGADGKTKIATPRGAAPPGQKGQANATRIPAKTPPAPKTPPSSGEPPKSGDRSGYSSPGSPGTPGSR
Described as above.

The target in assay [2] is eTau1a (amino acids 2-166 of fetal tau) (Homo sapiens (Human), UniProt P10636 2-541). The assay is described as above.
The target of assay [3] is T1, 383 amino acid recombinant tau. The description is as above.
Assay [4] deals with eTau 4 (FIG. 17). In words: relative binding affinity, method not named (Table 4); fifth column, headed eTau 4.
In another assay the target is T4, eTau-4 peptide.
T4 construct: also called synthetic eTau4 polypeptide
T4 peptide: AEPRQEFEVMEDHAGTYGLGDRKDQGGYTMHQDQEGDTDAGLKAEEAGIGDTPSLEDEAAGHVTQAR
The assay can be described thus: relative binding affinity, method not named (Table 4); sixth column, headed eTau 4.

Numbering of substitutions follows the chain as printed.

The Kd is a measure of binding affinity in units of concentration. As a reminder, the koff is a measure of how fast the partners let go of each other. As usually defined, the kon is a measure of how fast the partners come together.

T1 sequence (P10636 other isoform, or with tags, fused parts or gaps limits assumed): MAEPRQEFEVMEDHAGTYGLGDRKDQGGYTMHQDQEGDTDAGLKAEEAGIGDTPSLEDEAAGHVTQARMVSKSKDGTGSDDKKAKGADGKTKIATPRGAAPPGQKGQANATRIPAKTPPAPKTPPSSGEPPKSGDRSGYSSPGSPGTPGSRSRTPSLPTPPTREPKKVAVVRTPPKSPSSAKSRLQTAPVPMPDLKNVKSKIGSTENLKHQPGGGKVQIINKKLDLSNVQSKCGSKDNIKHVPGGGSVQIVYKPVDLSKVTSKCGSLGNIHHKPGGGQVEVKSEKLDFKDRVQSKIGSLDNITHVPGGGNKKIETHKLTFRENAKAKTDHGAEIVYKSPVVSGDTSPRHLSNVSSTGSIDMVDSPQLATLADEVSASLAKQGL

B1: VH4/Vk1 (antibody, V domains shown)
VH: EVQLVESGGALVKPGGSLRLSCAASGFSFSKYGMSWVRQAPGKGLEWVATISSSGSRTYYPDSVKGRFTISRDNAKNTLYLQMNSLRAEDTAMYYCAISWDGAMDYWGQGTTVTVSS
VL: DVLMTQSPLSLPVTLGQPASISCKSSQSIVHSNGNTYLEWYLQKPGQSPQLLVYKVSNRFSGVPDRFSGSGSGTDFTLKISRVEAEDVGTYYCFQGSLVPWAFGGGTKVEIK
notes: member of the group m7; also called humanized IPN002 variant VH4/Vk1
For the molecule B1, the Kd in assay [1] came out at 2.12 nM; with eTau 1b, 0.359 nM; in the assay with eTau 2, 0.405 nM; in assay [2], 0.198 nM; in assay [3], 0.187 nM; in assay [4], 0.28 nM. The Kd with eTau-4 peptide was found to be 0.498 nM. In assay [1], the koff was determined as 0.000297 s⁻¹. The kon in assay [1] is 140000 M⁻¹ s⁻¹.

B2: humanized IPN002 variant VH2/Vk3 (antibody, V domains shown)
VH: B1 VH with Q3H, A97S
VL: B1 VL with L3V, T90V
On to B2, for which the Kd in assay [1] was found to be 1.73 nM; with eTau 1b, 0.287 nM; in the assay with eTau 2 it was 0.261 nM; in assay [2] it was 0.327 nM; in assay [3], 0.223 nM; in assay [4] it was 0.219 nM. Besides, the Kd in the assay with eTau-4 peptide was found to be 0.411 nM. Further, the koff in assay [1] came to 0.000232 s⁻¹. Moreover, in assay [1], the kon stood at 134000 M⁻¹ s⁻¹.

B3: VH4/Vk4 (antibody, V domains shown)
VH: B1 VH
VL: B1 VL with L3V, V53I, T90V
notes: member of the group m7; also called humanized IPN002 variant VH4/Vk4
B3: the Kd in assay [1] came out at 0.812 nM; in the assay with eTau 1b, 0.535 nM; in the assay with eTau 2, 0.564 nM; in assay [2], 0.325 nM; in assay [3] it was 0.379 nM; in assay [4] it was 0.462 nM. The same molecule showed a Kd with eTau-4 peptide of 1.03 nM. Also, the koff in assay [1] turned out to be 0.000126 s⁻¹. Besides, the kon in assay [1] amounted to 156000 M⁻¹ s⁻¹.

B4: VH4/Vk2 (antibody, V domains shown)
VH: B1 VH
VL: B1 VL with L3V
notes: member of the group m7; also called humanized IPN002 variant VH4/Vk2
For the molecule B4, the Kd in assay [1] is 1.88 nM; with eTau 1b it was 0.483 nM; with eTau 2, 0.451 nM; in assay [2] it was 0.191 nM; in assay [3], 0.16 nM; in assay [4], 0.291 nM. For the same molecule, in the assay with eTau-4 peptide, the Kd was determined as 0.467 nM. The koff in assay [1] is 0.000307 s⁻¹. Further, the kon in assay [1] is 163000 M⁻¹ s⁻¹.

B5: VH4/Vk3 (antibody, V domains shown)
VH: B1 VH
VL: B1 VL with L3V, T90V
notes: member of the group m7; also called humanized IPN002 variant VH4/Vk3
Regarding B5, the equilibrium dissociation constant (Kd) came to 0.571 nM in assay [1]; 0.313 nM with eTau 1b; 0.473 nM with eTau 2; 0.178 nM in assay [2]; 0.276 nM in assay [3]; 0.636 nM in assay [4]. For the same molecule, the Kd with eTau-4 peptide amounted to 0.629 nM. Further, the dissociation rate constant (koff) in assay [1] turned out to be 9.39e-05 s⁻¹. Besides, the kon in assay [1] stood at 164000 M⁻¹ s⁻¹.

The values are drawn from patent US20160122421A1 (IPIERIAN, published 2016).
